# B1: LIPASE FROM PORCINE PANCREAS (protein, UniProt P00591 1-450, looked up)
# Pancreatic triacylglycerol …: SEVCFPRLGCFSDDAPWAGIVQRPLKILPWSPKDVDTRFLLYTNQNQNNYQELVADPSTITNSNFRMDRKTRFIIHGFIDKGEEDWLSNICKNLFKVESVNCICVDWKGGSRTGYTQASQNIRIVGAEVAYFVEVLKSSLGYSPSNVHVIGHSLGSHAAGEAGRRTNGTIERITGLDPAEPCFQGTPELVRLDPSDAKFVDVIHTDAAPIIPNLGFGMSQTVGHLDFFPNGGKQMPGCQKNILSQIVDIDGIWEGTRDFVACNHLRSYKYYADSILNPDGFAGFPCDSYNVFTANKCFPCPSEGCPQMGHYADRFPGKTNGVSQVFYLNTGDASNFARWRYKVSVTLSGKKVTGHILVSLFGNEGNSRQYEIYKGTLQPDNTHSDEFDSDVEVGDLQKVKFIWYNNNVINPTLPRVGASKITVERNDGKVYDFCSQETVREEVLLTLNPC
# Test system: Jurkat T cells
# Assay type: cell-based, human
# Conditions: IL-2 production level in treated group compared to control group; 48 hours treatment, then anti-CD3/anti-CD28 12 hours
# Text: Two preliminary screens were designed and performed.
# To construct “blood chemical compound library for cell-based screening purposes, components such as antibodies that are difficult to distinguish due to a wide variety, and some supplements that only function at a whole organism level including fish oils and herbs were excluded. Physiological ranges of serum levels of individual blood chemicals are available in the human metabolome database (https://hmdb.ca/) and applied in the experimental design. For first screen 1a, Jurkat T cells were treated with blood chemical library for 48 hours and then activated with 2.5 μg/mL anti-CD3 and 0.5 μg/mL anti-CD28 antibodies for another 12 hours, followed by measurement of IL-2 level in medium supernatant using ELISA kit (Biolegend). For first screen 1b, 1×10^5 PD-1^+ Jurkat T cells were co-cultured with 2×10^4 H596 (PD-L1^+) cells in a well of 96-well plate for 60 hours, and then activated with 2.5 μg/mL anti-CD3 and 0.5 μg/mL anti-CD28 antibodies for another 12 hours, followed by measurement of IL-2 level in medium supernatant using ELISA kit. Please also refer to Resources Table and Table 1-2 for more details.
molecule,measurement,value
B1,Relative changed percentage (%),−9.403%
